Assay results from article doi:10.1101/2021.04.18.440036.
Values joined by “and” are separate entries in the source; they are usually repeats but may differ in a detail not shown here. Equal entries are not always repeated.

Molecular target: protective antigen (PA) prepore (Bacillus anthracis)
Experiment: cryo-EM structure

protective antigen (PA) prepore (complex)
stoichiometry N: 7 and 8
